These results are taken from the DeepSol protein solubility set.

The series can be described thus: soluble on expression in E. coli; label from the status in PepcDB or PDB records.
“GPGSMSAIVPAAHAREDMGGCAPCRVSSFHPCEGDGAEEKECNASSGADAAAAAEPLDPLRCFSAFDVLRDVLAACTCAPALSRSTEKGADSPSLLPGAPLPSAWRTEQTREALRTLVDLVAADVGVSSARHGQGEAPEEAEIARSRLSVDALLLHLTTEGPNLRAALRRRRRQLLPMPPRDDATTQSEREACDEAHAACEEDEALAALTRCAASVALINRDLGSSARKGRKAVQTAASCVLQTRTALSLLRTSSLVHQPLRAGAGHAAASRSAIAAADVSAYWCSTGCMGLDQALGGGGFRSGWVTEVYGEAGAGKTQLGLQCLLQQAATDVCHAAVALALASGADFTSLAHMATTTGMCGSRSPVVKCMEVFDRDAVEAARCAVVYLVSEDVPTSRLGPLAAAAVGRAVRAVRLHPLVNQLPSGVVKTVWGCVERTCTVPTVLSRLQIRHVASVAEVLRLLEPLPHPQLAQVSRTSSPPNVIPNRAQRPRNSNLVEAVRVLAGTHGRAVVVLDSVAAAVVAGQWDMQGVAQADATVTALSLRLRQAAMTHNWCIVVTNQVRAIPTTARQRQCALAPIKRARSPTTSSTASAPSVTRTVVPALGFSWASAAHCRVFLRKSLSHGVRQLVLRHAPSHPPAQASYLITEHGIEDA”: the “soluble on expression in E. coli” value is on record as “not soluble”.

Consider “MSKRRYLTGKEVQAMMQAVCYGATGARDYCLILLAYRHGMRISELLDLHYQDLDLNEGRINIRRLKNGFSTVHPLRFDEREAVERWTQERANWKGADRTDAIFISRRGSRLSRQQAYRIIRDAGIEAGTVTQTHPHMLRHACGYELAERGADTRLIQDYLGHRNIRHTVRYTASNAARFAGLWERNNLINEKLKREEV”, for which the “soluble on expression in E. coli” value is given as “not soluble”.

With “MAHHHHHHMPGASDRGTAYVSCRIHCLPACFSRAVVAVCKLTSPAPGIPPLVSLCRYGLPGYSAQEGEAFSAAASGLHPRHQLPFVLSRVAASKAIASLSPDKRAACPGEEDGPAVVFTDRREAAPTLHGCCLSIAHEDSAAASVAWSVPSPDSSSFKDYHAAPERLYMEAQLVCSHSTLPDATATSFAYAIDVVNVAEVHRVRSRFPHFGQRWMPQCTTTASADDVGRALTCVQKQHQECVAAVGAPGGSHGGEGVSACQAACRRDEWWKHLVTPYVTEADAYAAVVLAQHWGVRECAVKLVGIPGRSFAYECVRALPPRGGAVVTESTPFTASFLMSHTLYSAEVHGAEAATLAQQRLHPLLYLYTWTEWVPLNSTVDLPYVVVLACAPCRSDAR”, the “soluble on expression in E. coli” value was “not soluble”.

Consider “MGSDKIHHHHHHMGKPTGFMEYDRCEAASVEPKERIKNFNEFHVFLSKENQQKQAARCMDCGVPFCQSGMTIAGMTSGCPLHNLVPEWNDLVYTGNWEQAYNRLHKTNNFPEFTSRVCPALCEKACTCGHWGSPVSVRDNEHGIIETAYANGYAAPKPPKVRTGKKVAIIGSGPSGLAAADQLNQRGHDVTVYEREDRVGGLLMYGIPNMKLDKSIIDRKVNIMKEEGIHFVTGCDVGKDIKPAELYKKYDRVILCCGAKNPRDIKADGRDAKGIYFAVDYLTQNTKSLLNSNLTDGKFVSAKGKNVVIIGGGDTGNDCVGTAIRQGAKSVTQLEMMPCPPTERAANNPWPQWPKVLKTDYGQEEAIAVFGHDPRTYKTTVKEFHKDKNGNLKELTIVSLESKKDEKTGRFMMVPVEGSEKKLPAELVLIAAGFLGTESYVAKAFGVELNARTNVSTQEGHYATNVKNVYVAGDNHRGQSLVVWAIREGREAAREVDESLMGYSYLSVQ”, for which the “soluble on expression in E. coli” value is listed as “not soluble”.

As for “MNVNGENNEKIDEHHLESSLAGVPTLPVSPLDHAKDLSQTNPNAQIGDLVTQTANLIAIKKQLLEDIAFNQHIQSMQVRAIQSFPQNNQVAPPFQQFDPRRRGLARMQKPESYKTVICQAWLESKTCSFADNCRFAHGEEELRPTFVEPLQNNKYKTKLCDKYTTTGLCPYGKRCLFIHPDHGPNAYIRADKLLEVSQRHALADIRDQMEQHIMTNGRIAAPPLSAIQHPLEMFARPSTPDEPAAKLPLGPTPVSTRGPRYELPTKELHDAEGAMTYPPSRWPLDPSMFALDAWNMAHRPASPLDSMVLGSAPNAGSFGMLGKQNTPGGVSGYSSAGSTPSQDLSSSSLNAASAAAAAAYFANSAVAQSLLMKSVATDPMMSCNGPFSPMPGFDQLAENMTKHLNLW”, the “soluble on expression in E. coli” value is listed as “not soluble”.

On to “MPLNKLIQDGDNQDLTDERFKATFDTDALAAVFHGGEDALKRIRELRDEVTKRWHLFDALPGAHRTRAERMEDVSRKLKNLMESVGEFADFTNNLDMLVIIRDVMGIEGFPLALHNLMFVPTIQNQADDEQTEWWLMDALQGKIIGTYAQTELGHGTNLGAIETTATYDKLTEEFIIHTPTTTATKWWPGGLGTSCTHVVLVANLIIDTKNYGLHPFFVPIRDRNSYSVMSGVRVGDIGTKMGVNCVDNGFLAFDNYRIPRRNMLMKHSKVSKEGLYTAPSHPKVGYTTMLYMRSEMIYHQAYYLAMAMAISIRYSAVRRQGEIKPGTQEVQILDYQTQQYRIFPGLARCFAFNTAAATVRQMTENCIKQLSHGNSDVLADLHALSCGLKAVVTHQASQSIDQARQACGGHGYSDASYLPTLYTCSVGACTYEGENMVMLLQLSKYLMKAAAKAEKGEEMAPLVAYLVKPDITETNDKFAKMLSHFEHIARHRVMHAYRQMIEEEKQGIERDYAFANHSVDWTKAARAHTKLFIARGFVKSVQEVSDEAVHDVLTTLAELYLSYELIEMSADLTANGYLSESDVQQIRHQIYDSMRKTRRNAVSIVDSFDICDRELRSVLGRRDGHVYENLYKWAQMSPLNERNLPHVEKYLKPMTSKL”, for which the “soluble on expression in E. coli” value is on record as “not soluble”.

For “MMRRGGQHLSPDPIGLGGGIQPQSYVHNPLEWVDPLGLTESGCKQPNSPENSQKPEVKKPNISTKIHDGAQGKHIEGHNNYVEGKSVIDAKPQELLDNYHAGNVNTSRVINENKIKVDFGDVNGTHKDMNGTNTSTSWGLIHSRKNGAHIVPALPDTILEHHHHHH”, the “soluble on expression in E. coli” value is recorded as “not soluble”.

“MSEGITDIEESQIQTNYDKVVYKFDDMELDENLLRGVFGYGFEEPSAIQQRAIMPIIEGHDVLAQAQSGTGKTGTFSIAALQRIDTSVKAPQALMLAPTRELALQIQKVVMALAFHMDIKVHACIGGTSFVEDAEGLRDAQIVVGTPGRVFDNIQRRRFRTDKIKMFILDEADEMLSSGFKEQIYQIFTLLPPTTQVVLLSATMPNDVLEVTTKFMRNPVRILVKKDELTLEGIKQFYVNVEEEEYKYECLTDLYDSISVTQAVIFCNTRRKVEELTTKLRNDKFTVSAIYSDLPQQERDTIMKEFRSGSSRILISTDLLARGIDVQQVSLVINYDLPANKENYIHRIGRGGRFGRKGVAINFVTNEDVGAMRELEKFYSTQIEELPSDIATLLN”: the “soluble on expression in E. coli” value is “soluble”.

Turning to “MGHHHHHHSHPPERQINLSNIRAGNLARRAAATQPDAKDTPDEPWAFPAREFLRKKLIGKEVCFTIENKTPQGREYGMIYLGKDTNGENIAESLVAEGLATRREGMRANNPE”, the “soluble on expression in E. coli” value is reported as “not soluble”.

As for “MGSDKIHHHHHHMAYNDSTKQYQRMLASYTRTGIETAIPGTKEEGIMRYRTMIYTIVNESLSTSYPLTRQLLTAQEWDDTVHRYFSTHACTSPYLWRMPLEFYEYIQEEQSALLIKYPCLSDLLLFEWVEIEVFMMEDEEVLHKTEGAVETDALVLNPACAVQYFQYPVYAKRAAEITPADAAHYFMLTHRNPETGNVAFLEIAPMFARMFEWLTEEAMSVDQLISRFTEESQLALAADSRINIVSFFKNCLSKRIILGFN”, the “soluble on expression in E. coli” value is “not soluble”.

Take “MSLNPLSRNVIPIEIHRIVAVGDVHGDAERFRQILEMSGVISLRSNSSKQVVWKPRWGTKEGNFFREYGTRLRTTLIQTGDLIDRGEEDLEVLEMAVSLFNEVRTNYTDDKVVLLMGNHELLNLQGHFHYVHSKSMGGFLTRALRKRAFELDGTFGGFILENFTVAYAVADTLFVHAGIDEHVVSDGIERLNREAKQAIRTKNFGHILLGSTGPLWSRKMFLDASNGRCADTKKALASLGVKRVVVGHTPQRSGRVETFCGGSVIAIDVGMSRWMYGNIAALEITVTSYSSGDGEGHHHHHH”: the “soluble on expression in E. coli” value is recorded as “soluble”.

With “MGSDKIHHHHHHMVVNMFEDIDTFEEAFNKLLREVLEFDLQNPFKDAKKVLCIEPHPDDCVIGMGGTIKKLSDMGVEVIYVCMTDGYMGTTDESLSGHELAAIRRKEEEESARLLGVKKIYWLNYRDTELPYSREVRKDLTKILRKEQPDGVFAPDPWLPYESHPDHRRTGFLAIESVAFSQLPNFSNTDLDIGLNPYNSGSFIALYYTHKPNYIVDITDLMELKLKAIRVHRSQFPDDIWEKWEPFLRTIAMFYGEKIGVRYGEGFRIMPGLFYHITPFTDLI”, the “soluble on expression in E. coli” value is given as “not soluble”.

For “SLDGELDTQPLIEQLWQAGKRVYLPVLHPFSPGNLLFLHYHPQSALVTNRLNIREPRLDVRDVLPLAKLDVLVTPLVAFDEGGQRLGMGGGFYDRTLQNWQQHKILPVGYAHDCQLVEKLPVEEWDIPLPAVVTPSKIWEW”, the “soluble on expression in E. coli” value is reported as “soluble”.

For “MSLSKIKEIRTKVYQWNGKTVPPQNNFCTNASDLLFEKSDAMGSFRFHEWLICEIETDDGVIGIGNAALAPQIAKKTIDTYLKPLVIGEDPFDYAYIWEKMYRRTHAWGRRGIGMVAISAIDIAIWDIMGKITNKPVFKLLGGRTKEKIPVYASKLYSQPIKALQKEAESYVKQGFKMFKMRFGWGPKDGPDGMKKNIALAEAVREVIGEDTDLMMECYMGWNLDYAKRMIPKLMKFNPRWLEEPVIADDIHGYEELNKMNMIPISGGEHEFNIFGFKQLLDLKAVSYIQYDNNRVGGFTAAQKINAIAEAHQVPVIPHAGQMHNYHLTMSNFNCPISEFFPVHDVEIGNELFYYIFEGDPAPKDGFIDLDDNKPGLGLTITDKYKSDFKIIEEGHHHHHH”, the “soluble on expression in E. coli” value was “soluble”.

As to “MILKRAYDVTPQKISTDKVRGVRKRVLIGLKDAPNFVMRLFTVEPGGLIDRHSHPWEHEIFVLKGKLTVLKEQGEETVEEGFYIFVEPNEIHGFRNDTDSEVEFLCLIPKEGGE”, the “soluble on expression in E. coli” value is recorded as “not soluble”.

“MGSDKIHHHHHHMTKAKYQQIEEILRRQITNGHYQEGDLIPKEFDLAEKYQVSRPTIRHAVQDLVNQGYLERRKHVGTIVKQTKIGQEFTHVLQSYNSEMSQKGLIAQTQVLFFKKEKASAEVAKALDLTENAPVYKLTRLRSADGNPIVLVTTYLPASKLSDFEKIDFTQQSLYQELEKRSLPIVHVKRKLEVKSADEMTANLLNIEEKVPIFYFHTYGYTKGEVPLEYSIAMYRGDENYFVIDLKR”: the “soluble on expression in E. coli” value was “not soluble”.

As for “MSLIISISNLSPKSNRSQTKDSQISKWSYFSDCILRSTGFPAEWIEKLCFHKTTTMFDLCYRTEQSLNELVERLKTLEQTCHIPSNARQDWQRIRKLVGKRKKVTDEFIHLMEQKGFDQSLTQEIESYERKRRLQEKNWTKARESFEAELAEKQLFLQEIYKNPRLQEAIFQQSPSMYKNAVVPYVHSSLQKRNTNIKRIERQLISYLQRLCTKNETTSFFGPIQYGVLTSEQQDIEYNFNQKETERRAFMPYWSIKVLAAQMKECDVFFPYLNVKLSYQYTKTGDSIHSPILEKMVKFPKPYADIIKHLTYENQSIEQLAKKLSQPVAWLAKKLRLLEKKRLILIEIPLSITEPDSLNELRSWILKIKDVEHPDLSLWQERLEWLWKVKQAYPYMTLGQKQELFHKLESTFTEWTGEQPRRLGGEIYADRNLLYEECHGPLNNIKIGGSIKHVLKQDVPKWLSICAKHGEQRRKQEQALAQEIFKMMYPNEDSVPFLKFVHDLSNHPDVHTWEKRWQSIKTEIEEAITHEVASNPKSVVHLSLDYQDFDRDMAWLTSPDLMIAKKDDDSYQVILGEIHDTIMVWGWALQFHPEKDRVNEQLVKKIQKSTQHLRMLNMLSSKRFKIVPFEYPGTTIQMNSFSNSPNEKIPLSQLKVTYTKEGLALTLPDHEEVFYTYNGELNTMVHSFFSLPRAVSFSIRTGESTPRLMLGDLVVQRAKWHISKQDVWSKKHTGSSIELFYEAYRFHLKESLPKEGFAKLPGQPKPVYVNFTSYFLIEMLEGLWPDGENCTFSEMLPNLSELWLSKEDQKTHTAEIRLSYFVERSEGHHHHHH”, the “soluble on expression in E. coli” value is “soluble”.

For the sequence “IPLARTVRCNCIHIDDGPVRMRAIGKLEIIPASLSCPRVEIIATMKKNDEQRCLNPESKTIKNLMKAF”, the “soluble on expression in E. coli” value is reported as “soluble”.
